According to article PMC7118729:

B1: rA16 (ssRNA)
RNA: AAAAAAAAAAAAAAAA
B2: rU16 (U16) (ssRNA)
RNA: UUUUUUUUUUUUUUUU

Biological target: Nsp15 endoribonuclease WT (SARS coronavirus, UniProt P0C6X7 6430-6775)

Binder | IC50 | Ki
B1 | 53 nM | 7.6 nM
B2 | 15 nM | 2.3 nM
